Measurements reported in patent US20150299281A1 (ZEALAND PHARMA A S, published 2015).
Blank lines part the entries; values can stand above or below the binder they belong to. Numbered stars: 1 amine (or outer) side, 2 acyl side, 3 side chain; on linkers, the order of the positions; unused ones are H or OH. Square brackets hold non-standard residues; d marks the D form. Side chains are listed from the residue outwards. * marks the point of attachment. γGlu = O=C(O)[C@H](CCC(=O)[*:2])N[*:1]; Palmitoyl = CCCCCCCCCCCCCCCC(=O)*; Aib = CC(C)(N)C(=O)O

Columns and labels:
[1] = target: human GLP-1 receptor (human, UniProt P43220 24-463); test: cell-based or functional assay
[2] = target: T1, human GIP receptor (human, UniProt P48546 22-466); test: cell-based or functional assay
T1 sequence (looked up): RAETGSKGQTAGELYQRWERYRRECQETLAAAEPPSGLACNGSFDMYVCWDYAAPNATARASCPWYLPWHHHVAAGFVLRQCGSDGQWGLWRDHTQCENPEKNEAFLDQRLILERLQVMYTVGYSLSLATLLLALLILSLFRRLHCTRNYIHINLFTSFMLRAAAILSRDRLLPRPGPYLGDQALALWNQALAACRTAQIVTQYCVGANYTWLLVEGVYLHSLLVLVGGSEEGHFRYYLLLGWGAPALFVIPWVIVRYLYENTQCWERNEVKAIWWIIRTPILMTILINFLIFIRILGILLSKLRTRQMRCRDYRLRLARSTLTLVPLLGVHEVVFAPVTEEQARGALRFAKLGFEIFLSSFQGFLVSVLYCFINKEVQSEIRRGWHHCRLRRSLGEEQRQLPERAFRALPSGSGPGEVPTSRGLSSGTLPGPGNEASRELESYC

EC50, cAMP induction in HEK293 cells expressing human GLP-1 R [1]: 0.017 nM
EC50, cAMP induction in HEK293 cells expressing human GIP R [2]: 0.0091 nM
B1: Compound 43 (peptide)
peptide: H-Y[Aib]EGTFTSDYSIYLEKKAAKEFVEWLLSA-NH2
SMILES: CC[C@H](C)[C@H](NC(=O)[C@H](CO)NC(=O)[C@H](Cc1ccc(O)cc1)NC(=O)[C@H](CC(=O)O)NC(=O)[C@H](CO)NC(=O)[C@@H](NC(=O)[C@H](Cc1ccccc1)NC(=O)[C@@H](NC(=O)CNC(=O)[C@H](CCC(=O)O)NC(=O)C(C)(C)NC(=O)[C@@H](N)Cc1ccc(O)cc1)[C@@H](C)O)[C@@H](C)O)C(=O)N[C@@H](Cc1ccc(O)cc1)C(=O)N[C@@H](CC(C)C)C(=O)N[C@@H](CCC(=O)O)C(=O)N[C@@H](CCCCN)C(=O)N[C@@H](CCCCN)C(=O)N[C@@H](C)C(=O)N[C@@H](C)C(=O)N[C@@H](CCCCN)C(=O)N[C@@H](CCC(=O)O)C(=O)N[C@@H](Cc1ccccc1)C(=O)N[C@H](C(=O)N[C@@H](CCC(=O)O)C(=O)N[C@@H](Cc1c[nH]c2ccccc12)C(=O)N[C@@H](CC(C)C)C(=O)N[C@@H](CC(C)C)C(=O)N[C@@H](CO)C(=O)N[C@@H](C)C(N)=O)C(C)C

EC50, cAMP induction in HEK293 cells expressing human GLP-1 R [1]: 0.048 nM
EC50, cAMP induction in HEK293 cells expressing human GIP R [2]: 0.088 nM
B2: Compound 46 (peptide)
peptide: H-Y[Aib]EGTFTSDYSIYLEKK([γGlu-Palmitoyl])AAKEFVEWLLSA-NH2
SMILES: CCCCCCCCCCCCCCCC(=O)N[C@@H](CCC(=O)NCCCC[C@H](NC(=O)[C@H](CCCCN)NC(=O)[C@H](CCC(=O)O)NC(=O)[C@H](CC(C)C)NC(=O)[C@H](Cc1ccc(O)cc1)NC(=O)[C@@H](NC(=O)[C@H](CO)NC(=O)[C@H](Cc1ccc(O)cc1)NC(=O)[C@H](CC(=O)O)NC(=O)[C@H](CO)NC(=O)[C@@H](NC(=O)[C@H](Cc1ccccc1)NC(=O)[C@@H](NC(=O)CNC(=O)[C@H](CCC(=O)O)NC(=O)C(C)(C)NC(=O)[C@@H](N)Cc1ccc(O)cc1)[C@@H](C)O)[C@@H](C)O)[C@@H](C)CC)C(=O)N[C@@H](C)C(=O)N[C@@H](C)C(=O)N[C@@H](CCCCN)C(=O)N[C@@H](CCC(=O)O)C(=O)N[C@@H](Cc1ccccc1)C(=O)N[C@H](C(=O)N[C@@H](CCC(=O)O)C(=O)N[C@@H](Cc1c[nH]c2ccccc12)C(=O)N[C@@H](CC(C)C)C(=O)N[C@@H](CC(C)C)C(=O)N[C@@H](CO)C(=O)N[C@@H](C)C(N)=O)C(C)C)C(=O)O

EC50, cAMP induction in HEK293 cells expressing human GLP-1 R [1]: 0.012 nM
EC50, cAMP induction in HEK293 cells expressing human GIP R [2]: 0.007 nM
B3: Compound 42 (peptide)
peptide: H-Y[Aib]EGTFTSDYSIYLDKKAAHDFVEWLLSA-NH2
SMILES: CC[C@H](C)[C@H](NC(=O)[C@H](CO)NC(=O)[C@H](Cc1ccc(O)cc1)NC(=O)[C@H](CC(=O)O)NC(=O)[C@H](CO)NC(=O)[C@@H](NC(=O)[C@H](Cc1ccccc1)NC(=O)[C@@H](NC(=O)CNC(=O)[C@H](CCC(=O)O)NC(=O)C(C)(C)NC(=O)[C@@H](N)Cc1ccc(O)cc1)[C@@H](C)O)[C@@H](C)O)C(=O)N[C@@H](Cc1ccc(O)cc1)C(=O)N[C@@H](CC(C)C)C(=O)N[C@@H](CC(=O)O)C(=O)N[C@@H](CCCCN)C(=O)N[C@@H](CCCCN)C(=O)N[C@@H](C)C(=O)N[C@@H](C)C(=O)N[C@@H](Cc1c[nH]cn1)C(=O)N[C@@H](CC(=O)O)C(=O)N[C@@H](Cc1ccccc1)C(=O)N[C@H](C(=O)N[C@@H](CCC(=O)O)C(=O)N[C@@H](Cc1c[nH]c2ccccc12)C(=O)N[C@@H](CC(C)C)C(=O)N[C@@H](CC(C)C)C(=O)N[C@@H](CO)C(=O)N[C@@H](C)C(N)=O)C(C)C

EC50, cAMP induction in HEK293 cells expressing human GLP-1 R [1]: 0.14 nM
EC50, cAMP induction in HEK293 cells expressing human GIP R [2]: 0.096 nM
B4: Compound 47 (peptide)
peptide: H-Y[Aib]EGTFTSDYSIYLDSK([γGlu-Palmitoyl])AAHDFVEWLLRA-NH2
SMILES: CCCCCCCCCCCCCCCC(=O)N[C@@H](CCC(=O)NCCCC[C@H](NC(=O)[C@H](CO)NC(=O)[C@H](CC(=O)O)NC(=O)[C@H](CC(C)C)NC(=O)[C@H](Cc1ccc(O)cc1)NC(=O)[C@@H](NC(=O)[C@H](CO)NC(=O)[C@H](Cc1ccc(O)cc1)NC(=O)[C@H](CC(=O)O)NC(=O)[C@H](CO)NC(=O)[C@@H](NC(=O)[C@H](Cc1ccccc1)NC(=O)[C@@H](NC(=O)CNC(=O)[C@H](CCC(=O)O)NC(=O)C(C)(C)NC(=O)[C@@H](N)Cc1ccc(O)cc1)[C@@H](C)O)[C@@H](C)O)[C@@H](C)CC)C(=O)N[C@@H](C)C(=O)N[C@@H](C)C(=O)N[C@@H](Cc1c[nH]cn1)C(=O)N[C@@H](CC(=O)O)C(=O)N[C@@H](Cc1ccccc1)C(=O)N[C@H](C(=O)N[C@@H](CCC(=O)O)C(=O)N[C@@H](Cc1c[nH]c2ccccc12)C(=O)N[C@@H](CC(C)C)C(=O)N[C@@H](CC(C)C)C(=O)N[C@@H](CCCNC(=N)N)C(=O)N[C@@H](C)C(N)=O)C(C)C)C(=O)O

EC50, cAMP induction in HEK293 cells expressing human GLP-1 R [1]: 0.011 nM
EC50, cAMP induction in HEK293 cells expressing human GIP R [2]: 0.013 nM
B5: Compound 41 (peptide)
peptide: H-Y[Aib]EGTFTSDYSIYLESKAAHDFVEWLLSA-NH2
SMILES: CC[C@H](C)[C@H](NC(=O)[C@H](CO)NC(=O)[C@H](Cc1ccc(O)cc1)NC(=O)[C@H](CC(=O)O)NC(=O)[C@H](CO)NC(=O)[C@@H](NC(=O)[C@H](Cc1ccccc1)NC(=O)[C@@H](NC(=O)CNC(=O)[C@H](CCC(=O)O)NC(=O)C(C)(C)NC(=O)[C@@H](N)Cc1ccc(O)cc1)[C@@H](C)O)[C@@H](C)O)C(=O)N[C@@H](Cc1ccc(O)cc1)C(=O)N[C@@H](CC(C)C)C(=O)N[C@@H](CCC(=O)O)C(=O)N[C@@H](CO)C(=O)N[C@@H](CCCCN)C(=O)N[C@@H](C)C(=O)N[C@@H](C)C(=O)N[C@@H](Cc1c[nH]cn1)C(=O)N[C@@H](CC(=O)O)C(=O)N[C@@H](Cc1ccccc1)C(=O)N[C@H](C(=O)N[C@@H](CCC(=O)O)C(=O)N[C@@H](Cc1c[nH]c2ccccc12)C(=O)N[C@@H](CC(C)C)C(=O)N[C@@H](CC(C)C)C(=O)N[C@@H](CO)C(=O)N[C@@H](C)C(N)=O)C(C)C

EC50, cAMP induction in HEK293 cells expressing human GLP-1 R [1]: 0.11 nM
EC50, cAMP induction in HEK293 cells expressing human GIP R [2]: 0.32 nM
B6: Compound 45 (peptide)
peptide: H-Y[Aib]EGTFTSDYSKYLDSK([γGlu-Palmitoyl])AAHDFVEWLLSA-NH2
SMILES: CCCCCCCCCCCCCCCC(=O)N[C@@H](CCC(=O)NCCCC[C@H](NC(=O)[C@H](CO)NC(=O)[C@H](CC(=O)O)NC(=O)[C@H](CC(C)C)NC(=O)[C@H](Cc1ccc(O)cc1)NC(=O)[C@H](CCCCN)NC(=O)[C@H](CO)NC(=O)[C@H](Cc1ccc(O)cc1)NC(=O)[C@H](CC(=O)O)NC(=O)[C@H](CO)NC(=O)[C@@H](NC(=O)[C@H](Cc1ccccc1)NC(=O)[C@@H](NC(=O)CNC(=O)[C@H](CCC(=O)O)NC(=O)C(C)(C)NC(=O)[C@@H](N)Cc1ccc(O)cc1)[C@@H](C)O)[C@@H](C)O)C(=O)N[C@@H](C)C(=O)N[C@@H](C)C(=O)N[C@@H](Cc1c[nH]cn1)C(=O)N[C@@H](CC(=O)O)C(=O)N[C@@H](Cc1ccccc1)C(=O)N[C@H](C(=O)N[C@@H](CCC(=O)O)C(=O)N[C@@H](Cc1c[nH]c2ccccc12)C(=O)N[C@@H](CC(C)C)C(=O)N[C@@H](CC(C)C)C(=O)N[C@@H](CO)C(=O)N[C@@H](C)C(N)=O)C(C)C)C(=O)O

EC50, cAMP induction in HEK293 cells expressing human GLP-1 R [1]: 0.041 nM
EC50, cAMP induction in HEK293 cells expressing human GIP R [2]: 0.061 nM
B7: Compound 48 (peptide)
peptide: H-Y[Aib]EGTFTSDYSIYLDEK([γGlu-Palmitoyl])AAKDFVEWLESA-NH2
SMILES: CCCCCCCCCCCCCCCC(=O)N[C@@H](CCC(=O)NCCCC[C@H](NC(=O)[C@H](CCC(=O)O)NC(=O)[C@H](CC(=O)O)NC(=O)[C@H](CC(C)C)NC(=O)[C@H](Cc1ccc(O)cc1)NC(=O)[C@@H](NC(=O)[C@H](CO)NC(=O)[C@H](Cc1ccc(O)cc1)NC(=O)[C@H](CC(=O)O)NC(=O)[C@H](CO)NC(=O)[C@@H](NC(=O)[C@H](Cc1ccccc1)NC(=O)[C@@H](NC(=O)CNC(=O)[C@H](CCC(=O)O)NC(=O)C(C)(C)NC(=O)[C@@H](N)Cc1ccc(O)cc1)[C@@H](C)O)[C@@H](C)O)[C@@H](C)CC)C(=O)N[C@@H](C)C(=O)N[C@@H](C)C(=O)N[C@@H](CCCCN)C(=O)N[C@@H](CC(=O)O)C(=O)N[C@@H](Cc1ccccc1)C(=O)N[C@H](C(=O)N[C@@H](CCC(=O)O)C(=O)N[C@@H](Cc1c[nH]c2ccccc12)C(=O)N[C@@H](CC(C)C)C(=O)N[C@@H](CCC(=O)O)C(=O)N[C@@H](CO)C(=O)N[C@@H](C)C(N)=O)C(C)C)C(=O)O

EC50, cAMP induction in HEK293 cells expressing human GLP-1 R [1]: 0.013 nM
EC50, cAMP induction in HEK293 cells expressing human GIP R [2]: 0.016 nM
B8: Compound 44 (peptide)
peptide: H-Y[Aib]EGTFTSDYSIYLDSKAAHDFVEWLLRA-NH2
SMILES: CC[C@H](C)[C@H](NC(=O)[C@H](CO)NC(=O)[C@H](Cc1ccc(O)cc1)NC(=O)[C@H](CC(=O)O)NC(=O)[C@H](CO)NC(=O)[C@@H](NC(=O)[C@H](Cc1ccccc1)NC(=O)[C@@H](NC(=O)CNC(=O)[C@H](CCC(=O)O)NC(=O)C(C)(C)NC(=O)[C@@H](N)Cc1ccc(O)cc1)[C@@H](C)O)[C@@H](C)O)C(=O)N[C@@H](Cc1ccc(O)cc1)C(=O)N[C@@H](CC(C)C)C(=O)N[C@@H](CC(=O)O)C(=O)N[C@@H](CO)C(=O)N[C@@H](CCCCN)C(=O)N[C@@H](C)C(=O)N[C@@H](C)C(=O)N[C@@H](Cc1c[nH]cn1)C(=O)N[C@@H](CC(=O)O)C(=O)N[C@@H](Cc1ccccc1)C(=O)N[C@H](C(=O)N[C@@H](CCC(=O)O)C(=O)N[C@@H](Cc1c[nH]c2ccccc12)C(=O)N[C@@H](CC(C)C)C(=O)N[C@@H](CC(C)C)C(=O)N[C@@H](CCCNC(=N)N)C(=O)N[C@@H](C)C(N)=O)C(C)C
